{
  "source": "patent US6861508B2",
  "about": "“Transcriptional intermediary factor-2” (Institut National de la Sante et de la Recherche Medicale, priority 1996, dated 2005)",
  "key": {"[1]": {"system": "ER, RARα and RXRα LBDs", "test": "GST pull-down of TIF2 polypeptides with NR LBDs", "format": "binding", "conditions": "in vitro, with or without 10^−6 M ligand", "outline": "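In vitro GST-fusion pull-downs tested TIF2 deletion or point-mutant polypeptides against ER or RARα LBDs. Point-mutant binding was quantified relative to a TIF2.1 wildtype standard. Values are means of at least three experiments with SD.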"}, "[2]": {"system": "CBP (residues 1872 to 2165)", "test": "GST-CBP pull-down of TIF2 polypeptides", "format": "binding", "protocol": "(d) Mapping of the CBP-interacting domain of TIF2. GST puld own experiments were performed with ^35S-labeled in-vitro-translated TIF2 polypeptides and bacterially produced GST and GST-CBP (expressing CBP residues 1872 to 2165).\n(c) Interaction of TIF2 AF-1 mutants with CBP in vitro. GST pull-down experiments were performed with ^35S-labeled in-vitro-translated GAL-TIF2 fusion proteins and bacterially produced GST and GST-CBP.\n(c) Interaction of TIF2.13 wildtype and TIF2.13 mutants with CBP in vitro. GST pull-down experiments were performed with ^35S-labeled in-vitro-translated VP16-TIF2.13 polypeptides and bacterially produced GST and GST-CBP.\nFurthermore, it was reported that SRC-1, which belongs to the same gene family as TIF2, interacts with CBP and p300 (Kamei, Y. et al., Cell 85:403-414 (1996); Yao, T. P. et al., Proc. Natl. Acad. Sci. USA 93:10626-10631 (1996); Hanstein, B., et al., Proc. Natl. Acad Sci USA 93:11540-11545 (1996)). Using GST-fusion protein-based interaction and animal cell-based two hybrid assays, we therefore analyzed whether TIF2 could also interact with CBP. […] A GST-CBP fusion protein was expressed in E. coli and used for puU-down assays with in vitro translated TIF2 polypeptides (FIG. 7d)."}, "[3]": {"molecular_target": "T1, GST-hERα(DEF) (pGEX2T-hERα(DEF), amino acids 282-595) (human, UniProt P03372 282-595)", "T1 construct": "range 282-595; Bacterially produced; also used 32P-labelled as Far-Western probe; also called GST-ER; GST-ER(DEF); not shown: glutathione-S-transferase (GST) of pGEX2T (Pharmacia)", "T1 sequence (looked up)": "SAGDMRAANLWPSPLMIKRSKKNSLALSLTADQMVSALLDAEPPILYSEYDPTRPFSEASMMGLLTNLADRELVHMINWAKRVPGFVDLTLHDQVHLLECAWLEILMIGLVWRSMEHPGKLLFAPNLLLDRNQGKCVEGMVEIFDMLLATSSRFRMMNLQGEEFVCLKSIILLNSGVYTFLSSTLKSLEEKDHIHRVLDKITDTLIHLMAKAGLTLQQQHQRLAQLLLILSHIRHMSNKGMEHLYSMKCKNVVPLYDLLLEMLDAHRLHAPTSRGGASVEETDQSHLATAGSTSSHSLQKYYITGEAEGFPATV", "test": "GST pull-down with 35S in-vitro-translated TIF2 polypeptides, with or without 10^-6 M estradiol"}},
  "data": [
    {"molecule": "TIF2.2 (TIF2 amino acids 1288-1464) (other, In-vitro-translated; also called AD2) NPRIPQANAQQFPFPPNYGISQQPDPGFTGATTPQSPLMSPRMAHTQSPMMQQSQANPAYQAPSDINGWAQGNMGGNSMFSQQSPPHFGQQANTSMYSNNMNINVSMATNTGGMSSMNQMTGQISMTSVTSVSTSGLSSMGPEQVNDPALRGGNLFPNQLPGMDMIKQEGDTTRKYC", "values": [
      {"measurement": "binding to NRs (ER, RARα LBDs)", "setting": "[1]", "value": "cannot bind NRs"},
      {"measurement": "binding to GST-CBP in vitro", "setting": "[2]", "value": "did not show any binding"},
      {"measurement": "binding result", "setting": "[3]", "value": "no binding"}
    ]}
  ]
}
